Data published in FireProtDB (doi:10.1016/s0022-2836(02)00630-7).

B1: Phosphocarrier protein HPr, P08877 (parent)
chain: MAQKTFKVTADSGIHARPATVLVQTASKYDADVNLEYNGKTVNLKSIMGVMSLGIAKGAEITISASGADENDALNALEETMKSEGLGE

Variants of: B1
Settings: Bacillus subtilis (strain 168), pH 7, CD, Potassium phosphate 10 mM, reversible: yes, structure 1KKM, whole UniProt chain shown; for ddG of mutation (higher = less stable) / denaturant m value / denaturant midpoint (higher = more stable): 25 °C

G49E
ddG of mutation (higher = less stable) (Thermal): -1.4 kcal/mol | ddG of mutation (higher = less stable) (Urea): -1.2 kcal/mol | denaturant m value (Urea): 1 kcal/mol/M | denaturant midpoint (higher = more stable) (Urea): 5.77 M | Tm (Thermal): 78.1 °C | change of melting temperature, mutant - wild type (higher = more stable) (Thermal): 5.5 °C | unfolding enthalpy (van 't Hoff) (Thermal): 83.8 kcal/mol

G49A
ddG of mutation (higher = less stable) (Thermal): -0.8 kcal/mol | ddG of mutation (higher = less stable) (Urea): -0.9 kcal/mol | denaturant m value (Urea): 1.01 kcal/mol/M | denaturant midpoint (higher = more stable) (Urea): 5.44 M | Tm (Thermal): 75.8 °C | change of melting temperature, mutant - wild type (higher = more stable) (Thermal): 3.2 °C | unfolding enthalpy (van 't Hoff) (Thermal): 82.4 kcal/mol

G49K
ddG of mutation (higher = less stable) (Thermal): 1 kcal/mol | ddG of mutation (higher = less stable) (Urea): 0.8 kcal/mol | denaturant m value (Urea): 1.13 kcal/mol/M | denaturant midpoint (higher = more stable) (Urea): 3.84 M | Tm (Thermal): 68.1 °C | change of melting temperature, mutant - wild type (higher = more stable) (Thermal): -4.5 °C | unfolding enthalpy (van 't Hoff) (Thermal): 73.9 kcal/mol
